Test results taken from IntAct's records for PubMed 24805197.

B1: Sarcoplasmic reticulum histidine-rich calcium-binding protein (Homo sapiens), P23327 (parent)
chain: MGHHRPWLHASVLWAGVASLLLPPAMTQQLRGDGLGFRNRNNSTGVAGLSEEASAELRHHLHSPRDHPDENKDVSTENGHHFWSHPDREKEDEDVSKEYGHLLPGHRSQDHKVGDEGVSGEEVFAEHGGQARGHRGHGSEDTEDSAEHRHHLPSHRSHSHQDEDEDEVVSSEHHHHILRHGHRGHDGEDDEGEEEEEEEEEEEEASTEYGHQAHRHRGHGSEEDEDVSDGHHHHGPSHRHQGHEEDDDDDDDDDDDDDDDDVSIEYRHQAHRHQGHGIEEDEDVSDGHHHRDPSHRHRSHEEDDNDDDDVSTEYGHQAHRHQDHRKEEVEAVSGEHHHHVPDHRHQGHRDEEEDEDVSTERWHQGPQHVHHGLVDEEEEEEEITVQFGHYVASHQPRGHKSDEEDFQDEYKTEVPHHHHHRVPREEDEEVSAELGHQAPSHRQSHQDEETGHGQRGSIKEMSHHPPGHTVVKDRSHLRKDDSEEEKEKEEDPGSHEEDDESSEQGEKGTHHGSRDQEDEEDEEEGHGLSLNQEEEEEEDKEEEEEEEDEERREERAEVGAPLSPDHSEEEEEEEEGLEEDEPRFTIIPNPLDRREEAGGASSEEESGEDTGPQDAQEYGNYQPGSLCGYCSFCNRCTECESCHCDEENMGEHCDQCQHCQFCYLCPLVCETVCAPGSYVDYFSSSLYQALADMLETPEP

Variants of: B1
Conditions: with ryr2_mouse Ryr2, E9Q401
Sequence of ryr2_mouse Ryr2, E9Q401 (E9Q401 whole entry): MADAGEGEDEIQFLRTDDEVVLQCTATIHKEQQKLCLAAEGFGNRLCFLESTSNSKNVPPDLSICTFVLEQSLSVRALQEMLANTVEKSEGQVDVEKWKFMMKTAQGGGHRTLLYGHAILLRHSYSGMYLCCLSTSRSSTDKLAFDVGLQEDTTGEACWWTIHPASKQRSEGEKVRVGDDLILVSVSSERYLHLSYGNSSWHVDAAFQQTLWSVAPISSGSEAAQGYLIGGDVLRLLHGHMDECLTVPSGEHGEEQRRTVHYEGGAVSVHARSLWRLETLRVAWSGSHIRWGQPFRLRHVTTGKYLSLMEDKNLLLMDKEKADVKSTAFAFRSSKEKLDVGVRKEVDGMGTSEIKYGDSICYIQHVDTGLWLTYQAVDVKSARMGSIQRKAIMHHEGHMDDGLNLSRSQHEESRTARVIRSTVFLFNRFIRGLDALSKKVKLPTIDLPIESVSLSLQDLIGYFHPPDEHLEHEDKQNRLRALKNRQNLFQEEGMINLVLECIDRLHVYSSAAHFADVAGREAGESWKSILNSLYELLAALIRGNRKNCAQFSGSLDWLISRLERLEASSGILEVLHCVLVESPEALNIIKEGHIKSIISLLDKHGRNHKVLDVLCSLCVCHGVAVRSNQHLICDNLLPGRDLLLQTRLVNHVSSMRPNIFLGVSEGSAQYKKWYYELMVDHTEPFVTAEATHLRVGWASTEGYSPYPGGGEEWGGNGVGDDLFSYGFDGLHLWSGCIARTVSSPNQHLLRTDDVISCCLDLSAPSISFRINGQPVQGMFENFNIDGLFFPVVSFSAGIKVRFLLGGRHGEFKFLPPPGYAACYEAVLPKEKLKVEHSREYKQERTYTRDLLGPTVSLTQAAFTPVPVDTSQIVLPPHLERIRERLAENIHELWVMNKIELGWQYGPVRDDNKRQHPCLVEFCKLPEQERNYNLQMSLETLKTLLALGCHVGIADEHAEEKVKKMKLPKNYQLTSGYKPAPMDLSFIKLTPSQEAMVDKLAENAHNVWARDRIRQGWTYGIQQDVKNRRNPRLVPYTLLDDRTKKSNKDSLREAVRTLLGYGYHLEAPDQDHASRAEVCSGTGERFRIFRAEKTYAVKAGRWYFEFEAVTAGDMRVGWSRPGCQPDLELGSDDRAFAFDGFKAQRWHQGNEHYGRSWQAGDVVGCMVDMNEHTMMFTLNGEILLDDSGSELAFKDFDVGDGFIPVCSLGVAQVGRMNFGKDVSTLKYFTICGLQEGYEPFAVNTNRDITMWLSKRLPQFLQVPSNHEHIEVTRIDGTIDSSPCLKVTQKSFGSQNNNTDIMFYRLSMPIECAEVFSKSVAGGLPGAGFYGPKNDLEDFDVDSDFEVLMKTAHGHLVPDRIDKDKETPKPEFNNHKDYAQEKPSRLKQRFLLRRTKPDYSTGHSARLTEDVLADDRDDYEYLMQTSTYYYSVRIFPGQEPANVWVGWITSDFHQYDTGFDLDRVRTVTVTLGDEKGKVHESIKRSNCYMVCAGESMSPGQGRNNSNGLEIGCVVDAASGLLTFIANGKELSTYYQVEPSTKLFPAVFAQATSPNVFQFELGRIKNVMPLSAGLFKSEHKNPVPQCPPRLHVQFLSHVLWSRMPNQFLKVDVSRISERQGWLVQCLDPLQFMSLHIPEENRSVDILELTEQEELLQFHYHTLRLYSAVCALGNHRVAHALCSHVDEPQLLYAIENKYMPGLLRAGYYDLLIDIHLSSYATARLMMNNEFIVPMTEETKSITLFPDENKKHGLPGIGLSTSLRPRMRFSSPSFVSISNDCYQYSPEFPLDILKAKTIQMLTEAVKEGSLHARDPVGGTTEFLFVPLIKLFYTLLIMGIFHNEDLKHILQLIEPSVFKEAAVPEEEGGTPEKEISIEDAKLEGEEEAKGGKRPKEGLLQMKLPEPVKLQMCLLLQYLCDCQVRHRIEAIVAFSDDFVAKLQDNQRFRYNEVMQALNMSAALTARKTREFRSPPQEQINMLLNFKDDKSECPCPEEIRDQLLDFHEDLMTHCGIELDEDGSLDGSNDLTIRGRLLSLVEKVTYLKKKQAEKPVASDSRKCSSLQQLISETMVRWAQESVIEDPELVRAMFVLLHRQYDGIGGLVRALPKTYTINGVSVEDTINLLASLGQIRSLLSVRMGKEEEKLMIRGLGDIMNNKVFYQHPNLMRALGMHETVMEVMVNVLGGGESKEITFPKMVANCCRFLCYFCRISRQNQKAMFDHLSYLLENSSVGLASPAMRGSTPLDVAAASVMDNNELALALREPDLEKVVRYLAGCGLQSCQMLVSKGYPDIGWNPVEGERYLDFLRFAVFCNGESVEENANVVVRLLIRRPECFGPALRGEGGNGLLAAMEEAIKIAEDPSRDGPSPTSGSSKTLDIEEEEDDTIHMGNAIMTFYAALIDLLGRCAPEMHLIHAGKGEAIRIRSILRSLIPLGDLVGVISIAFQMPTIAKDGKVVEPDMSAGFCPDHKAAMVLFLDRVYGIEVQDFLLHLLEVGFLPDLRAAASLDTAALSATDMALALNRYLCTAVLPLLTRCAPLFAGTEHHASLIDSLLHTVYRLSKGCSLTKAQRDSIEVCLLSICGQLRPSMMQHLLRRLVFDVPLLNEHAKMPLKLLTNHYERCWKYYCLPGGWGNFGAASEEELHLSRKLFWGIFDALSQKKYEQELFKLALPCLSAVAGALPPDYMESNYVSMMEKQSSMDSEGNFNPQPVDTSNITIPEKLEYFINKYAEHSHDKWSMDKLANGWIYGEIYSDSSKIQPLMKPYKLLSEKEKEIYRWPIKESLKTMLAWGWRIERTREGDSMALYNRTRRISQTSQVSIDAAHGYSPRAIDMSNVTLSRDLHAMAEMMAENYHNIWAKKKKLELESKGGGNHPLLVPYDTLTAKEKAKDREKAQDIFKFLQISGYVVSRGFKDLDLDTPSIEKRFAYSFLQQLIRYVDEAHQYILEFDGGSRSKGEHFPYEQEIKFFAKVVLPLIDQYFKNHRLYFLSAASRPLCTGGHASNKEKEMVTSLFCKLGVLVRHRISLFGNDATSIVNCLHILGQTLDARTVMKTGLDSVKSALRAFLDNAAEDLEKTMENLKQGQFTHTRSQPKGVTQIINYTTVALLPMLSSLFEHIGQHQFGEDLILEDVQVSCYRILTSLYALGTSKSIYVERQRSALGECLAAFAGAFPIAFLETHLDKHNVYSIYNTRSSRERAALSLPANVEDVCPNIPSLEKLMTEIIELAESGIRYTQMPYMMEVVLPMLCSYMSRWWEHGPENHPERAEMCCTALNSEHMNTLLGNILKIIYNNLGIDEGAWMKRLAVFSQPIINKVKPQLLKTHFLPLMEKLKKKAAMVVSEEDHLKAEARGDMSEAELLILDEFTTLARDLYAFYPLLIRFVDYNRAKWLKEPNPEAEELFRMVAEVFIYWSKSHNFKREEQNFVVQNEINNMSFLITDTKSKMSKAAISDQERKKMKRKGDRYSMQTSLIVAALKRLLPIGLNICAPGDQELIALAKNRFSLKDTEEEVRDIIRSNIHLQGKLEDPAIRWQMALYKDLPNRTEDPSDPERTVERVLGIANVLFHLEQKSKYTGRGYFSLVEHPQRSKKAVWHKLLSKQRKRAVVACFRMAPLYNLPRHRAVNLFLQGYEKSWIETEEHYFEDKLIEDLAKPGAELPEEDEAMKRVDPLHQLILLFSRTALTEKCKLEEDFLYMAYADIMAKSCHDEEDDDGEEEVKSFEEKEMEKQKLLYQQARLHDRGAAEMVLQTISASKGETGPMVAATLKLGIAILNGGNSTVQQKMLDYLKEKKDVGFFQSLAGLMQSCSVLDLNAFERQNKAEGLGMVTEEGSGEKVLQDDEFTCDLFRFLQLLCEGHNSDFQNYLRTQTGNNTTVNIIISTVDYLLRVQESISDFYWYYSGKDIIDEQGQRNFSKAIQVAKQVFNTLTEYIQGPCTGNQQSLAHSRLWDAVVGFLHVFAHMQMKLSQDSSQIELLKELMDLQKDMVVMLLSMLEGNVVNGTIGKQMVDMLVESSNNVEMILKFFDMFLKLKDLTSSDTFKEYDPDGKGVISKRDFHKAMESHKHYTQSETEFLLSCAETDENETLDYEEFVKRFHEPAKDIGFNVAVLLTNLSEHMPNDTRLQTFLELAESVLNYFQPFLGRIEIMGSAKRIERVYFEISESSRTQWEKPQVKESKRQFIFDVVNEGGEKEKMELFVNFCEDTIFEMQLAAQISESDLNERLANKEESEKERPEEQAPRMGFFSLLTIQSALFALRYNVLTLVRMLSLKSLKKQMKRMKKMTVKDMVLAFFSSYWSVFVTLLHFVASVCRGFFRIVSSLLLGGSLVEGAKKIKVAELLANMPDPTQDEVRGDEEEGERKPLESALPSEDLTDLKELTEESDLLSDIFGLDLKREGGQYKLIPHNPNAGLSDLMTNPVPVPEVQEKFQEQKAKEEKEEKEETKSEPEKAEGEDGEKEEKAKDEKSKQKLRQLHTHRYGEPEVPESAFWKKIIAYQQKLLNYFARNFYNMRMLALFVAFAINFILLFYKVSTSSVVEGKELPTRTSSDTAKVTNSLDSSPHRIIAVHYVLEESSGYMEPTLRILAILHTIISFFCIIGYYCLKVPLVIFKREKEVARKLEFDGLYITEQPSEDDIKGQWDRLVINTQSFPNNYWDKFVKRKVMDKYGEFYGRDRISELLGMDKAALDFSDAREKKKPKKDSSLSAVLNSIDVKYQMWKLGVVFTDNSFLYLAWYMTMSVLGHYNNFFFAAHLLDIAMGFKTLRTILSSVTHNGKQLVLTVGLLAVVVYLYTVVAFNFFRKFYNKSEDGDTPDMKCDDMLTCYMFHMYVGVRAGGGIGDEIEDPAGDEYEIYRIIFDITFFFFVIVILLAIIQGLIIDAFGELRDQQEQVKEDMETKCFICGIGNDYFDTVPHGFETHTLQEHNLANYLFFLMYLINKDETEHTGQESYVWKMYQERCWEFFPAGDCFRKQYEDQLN

Row | Variant | effect of a mutation on the interaction
1 | S96A | decreasing interaction strength
